Source: patent publication US20230066984A1, “New Carbon Glycoside Glycosyltransferase and Use Thereof” (CAS Center for Excellence in Molecular Plant Sciences, priority 2020, published 2023)

test: In vitro functional identification of C-glycosyltransferases by HPLC, phloretin as glycosyl receptor; format: biochemical; settings: 0.1 mM phloretin, 0.3 mM UDP glucose, crude enzyme, 37° C., 2 h, HPLC (FIG. 1A)
Protocol: The recombinant plasmid was transformed into competent cells of Escherichia coli BL21 (DE3), and cultured overnight at 37° C. in solid LB medium (kanamycin 50 μg/mL). Single colony was transferred to a 2 mL LB liquid medium (containing 50 μg/ml kanamycin) and incubated overnight. The bacterial fluid was transferred to a new 100 ml LB liquid medium with antibiotics and incubated at 37° C. and 250 r/min until OD600 reached 0.5-0.6. The culture was cooled down to 16° C. in a water bath. Then inducer IPTG was added at a final concentration of 0.1 mM. The mixture was cultured at 16° C. for low temperature induction and 180 r/min for 20 h. The BL21(DE3) recombinant strain carrying the pET28a empty plasmid was used as a blank control, and the culture operation was the same as above. The bacteria were harvested by centrifugation (6000 r/min, 5 min), re-suspended in 1 mL of lysis buffer Buffer A (20 mM Tris-HCl, pH 8.0; 100 mM NaCl), and DNase was added to a final concentration of 5 μg/mL, Mg^2+ to a final concentration of 2 mM; protease inhibitor PMSF to a final concentration of 1 mM; the bacteria were incubated on ice for 30 min and then sonicated; refrigerated centrifugation (10,000 rpm, 30 min, 4° C.), filtered through a 0.2 µm filter membrane to obtain the supernatant crude enzyme solution, and added 20% glycerol for cryopreservation (−20° C.).
The in vitro enzyme catalytic assay system is 100 μL. The reaction system includes: 0.1 mM glycosyl receptor (phloretin or 2-hydroxynaringenin), 0.3 mM UDP glucose, 25 μL supernatant crude enzyme solution, and Buffer A is used to make up the volume to 100 μL, and react at 37° C. for 2 h. After the reaction was completed, an equal volume of methanol was added to terminate the reaction, and HPLC was used for product analysis. HPLC detection conditions: chromatographic column: reverse phase C18 column [SilGreen ODS column (ø 4.6×250 mm)], detection wavelength 280 nm; mobile phase: acetonitrile (0.1% formic acid)-water (0.1% formic acid) mixture gradient elution, with increased ratio from 5:95 to 100:0 within 0 to 20 min, and the flow rate was 1 mL/min.

Molecule	conversion of substrate phloretin to C-glycosylated product (Nothofagin)	5′ C-glycosylation of 3′-glycosylated phloretin giving phloretin-3′,5′-C-diglucoside
PpCGT1: C-glycosyltransferase from high knot bamboo, SEQ ID NO: 3 (protein, listed as Phyllostachys prominens) MPTSGSRTGGRPHVILLPSAGMGHLVPFSRLAVALSSGHGCDVSVVAVLPTVSAAESRHLQGLLDASPAVRRLDLHLAPFDESEFPGADPFFLRFEAMRRSAPLLGPLLADTGESALVTDIALASVVIPVAKEIHLPCYVLFTASAAMLSFCAYFPTYLDTNAGRVVGDVDIPGVYRIPKASIPQALHDRNHLFTRQFVANGQDLAKADGVLVNTFDALELEAVTALRQGSVAAGFPPVFSVGPLVTVNLPAGEAAKESGNDYMYWLDAQPARSVVYVSFGSRKAISRNQVRELAVGLEASGQRFLWVVKSTVVDRDDSAELSELLDEGFLERVQGRGLVTKAWVEQEEVLKHESIGLFISHCGWNSVTEAAASGVPVLAWPRFGDQRVNAGVVARGGLGVWVERWSWEGEEGVVSGEEIAEKVKAVMADETVRKKAASVGEAAVKEFADGGTSYRSLTEFVRRCRDLAVLD	can convert the substrate phloretin to a product having a shorter retention time	–
OsCGT2: C-glycosyltransferase from Japonica rice, SEQ ID NO: 5 (protein, Oryza Sativa japonica) MCSAATPNSGDVRATPGSSRPHVVLLPSAGMGHLVPFTRLAAALCSGHGCDVSLVAAVPTVSSAEARHLAAHFTAFPAVRRLELDLASLDVSEFAGADPFYVRYEAIRRSASLLAPLLAGGASAAASALVADIALASVVIPVAKDLRLPCYVFFTASATMFSFLAYLPTYLDANAGGGHAIGDVDVPGVCRVPTSSVPQALHDPDDIFTRQFIANARSLANADGLVVNAFDALEPEAVAALRQGTVAAGLPPVFAVGPLSPAPIPAKDSGSYLPWLDAQPARSVVYVSFGSRKALPRDQLSELAAGLEASGHRFLWVVKGAVVDRDDAGELTDLLGEAFLQRIHGRGLVTMAWVRQEEVLNHPSVGLFISHCGWNSVTEAAASGVPVVAWPRFADQRVNAGVVARAGIGVWVDTWSWEGEDDGVVSAEDIAGKVRSAMADEGVRKAAASVREAAARAVAAGGSSYRSLAELVRRCRDGLVITNGM	can convert the substrate phloretin to a product having a shorter retention time	–
OsCGT: C-glycosyltransferase from Japonica rice, SEQ ID NO: 19 (protein, Oryza Sativa japonica) MPSSGDAAGRRPHVVLIPSAGMGHLVPFGRLAVALSSGHGCDVSLVTVLPTVSTAESKHLDALFDAFPAVRRLDFELAPFDASEFPSADPFFLRFEAMRRSAPLLGPLLTGAGASALATDIALTSVVIPVAKEQGLPCHILFTASAAMLSLCAYFPTYLDANAGDGGGVGDVDIPGVYRIPKASIPQALHDPNHLFTRQFVANGRSLTSAAGILVNTFDALEPEAVAALQQGKVASGFPPVFAVGPLLPASNQAKDPQANYMEWLDAQPARSVVYVSFGSRKAISGEQLRELAAGLETSGHRFLWVVKSTVVDRDDAAELGELLGEGFLKRVEKRGLVTKAWVDQEEVLKHESVALFVSHCGWNSVTEAAASGVPVLALPRFGDQRVNSGVVARAGLGVWADTWSWEGEAGVIGAEEISEKVKAAMADEALRRKAASLAKAAAKAVAGGGSSHRCLVEFARLCQGGTCRTN	can convert the substrate phloretin to a product having a shorter retention time	can catalyze the glycosylation of the 3′-glycosylated phloretin at the 5′ position
ZmCGT: C-glycosyltransferase from maize, SEQ ID NO: 20 (protein, Zea mays) MAANGGDHTSARPHVVLLPSAGMGHLVPFARLAVALSEGHGCNVSVAAVQPTVSSAESRLLDALFVAAAPAVRRLDFRLAPFDESEFPGADPFFLRFEATRRSAPLLGPLLDAAEASALVTDIVLASVALPVARERGVPCYVLFTSSAAMLSLCAYFPAYLDAHAAAGSVGVGVGNVDIPGVFRIPKSSVPQALHDPDHLFTQQFVANGRCLVACDGILVNTFDAFEPDAVTALRQGSITVSGGFPPVFTVGPMLPVRFQAEETADYMRWLSAQPPRSVVYVSFGSRKAIPRDQLRELAAGLEASGKRFLWVVKSTIVDRDDTADLGGLLGDGFLERVQGRAFVTMGWVEQEEILQHGSVGLFISHCGWNSLTEAAAFGVPVLAWPRFGDQRVNAALVARSGLGAWEEGWTWDGEEGLTTRKEVAKKIKGMMGYDAVAEKAAKVGDAAAAAIAKCGTSYQSLEEFVQRCRDAERK	can convert the substrate phloretin to a product having a shorter retention time	can catalyze the glycosylation of the 3′-glycosylated phloretin at the 5′ position
SiCGT2: C-glycosyltransferase from millet, SEQ ID NO: 18 (protein, listed as Setaria italica) MSSPPPPNSTSDDCQGTAATPHIVLFPSAGMGHLVPFTRLAVALSAGHCCDVSLVTALPTVSSAESCHIAALFAAFPAVRRLDLRLAPLDASSEFPGADPFYVRYEALRRSTPLLLGPLLAGASASALVADIALASVAIPVARELRVPCYVFFTASATMLSFKAYFPTYLDANGGAGHSVGDVDVPGVCRVPRSSIPQALHDPDDIFTRQFVANGRALVAADGLLVNAFEAMEPEAVAALLGGSVVASLPPVFAVGPLMPLNLREAAEEQGNYRAWLDAQPPRSVVYVSFGSRKALARDQIRELAAWLEACGHRFLWVVKGAVVDRDDACELSDLLGEGFQRRVEGRGLVTKSWVEQDEVLRHPAVGLFVSHCGWNSVTEAAANGVPVLAWPRFADQRVNARVVARAGFGVWVERWSWEGEEAVVGAEEIAEQVVAAMGDQAVAEKAASVRDEAARAVADGGTSQQSLAEFVRRCRGGLAGPGTDLGRTWTARG	can convert the substrate phloretin to a product having a shorter retention time	–
PhCGT2: C-glycosyltransferase from moso bamboo, SEQ ID NO: 4 (protein, listed as Phyllostachys edulis) MASRAMPSSSDRTGGAPRVVLLPSAGMGHLVPFGRLAVALSSGHACDVSVVTVLPTVSSAESKHLQGLFDAFPAVRRLDLHLAPFDASEFSDADPFYVRYEAVRRSAPLLGPLLADADASALVADIALASVVIPVAKELLIPCYIFFTASATMFSLLAYFPTYLHSNAGHSIGDVDVPGVYRIPMSSIPQALHDPNNLFTQQFVANGRSLAEADGLLVNTFDAFEPEAVTALRHGTVAPGFPPVFALGPLSPVGFPAGEAARESGNYTTWLDAQPARSVVYVSFGSRKALLRDQLSELAAGLEASGCRFLWVVKGTVVDRDDDRELRELLGEVFLQRVNGRALVTKAWVEQEEVLKHPAVGLFISHCGWNSVTEATVSGVPVLAWPRFADQRVSAGVVARRGLGVWVERWSWEGEERVVTGDEIAEKVKSVLADETLRKNSTMVREAAAAAVATGGTSYRSLAKFVRRCST	can convert the substrate phloretin to a product having a shorter retention time	–
